The results in this text go back to a protein production outcome set (Wang et al. 2014).

This series is described as follows: label from the status in PepcDB records.
Regarding “MQEQWGYVAISFIIGIAIAFSSSLLLIVFCLFLNVFFCLYRTSRKTFIFCIVACFSSVIYTSYVQTWNKPLGESYGVTRGVIQNTPLVNGDRLSFQFEDQNKNIVQLSYRIKSALEKKKMQQLYAGISCVFEGERKEPETARNFHGFNYRDYLYKQHIHFTFEATYISECYKTSLSLTQWILLLRQQAISKVTEMFPEQSGAFMNALLFGDRQQMTFEVEEQYQQFGLVHLLAISGSHIVLLMVIVYFILLRSGATREVATICLIVCIPLYMVLAGASPSVIRASITGVLMLIAFMCSIRLSSLDALSVTAICMLIYDPYLVFNIGFQFSFVGSFALLLSAPLLLGSSNGVIRNSIYISIISQLVSTPILLYHFGYFSPYSILLNLLYVPFLSIIVLPCSIIILLCMPIVPFLAKGFADVLSIGLSMSNDFLSYCESLPFTQLIFGETPLNLVAVYCASIVSILMVWERRAPKKIVCIVASVFLFISTCHYIYPYFRGSGSVTFIDVGQGDAILIRLPYDKGIYLIDTGGTLRVNKEEWQQKKHEFSVGNDVLIPFLQKEGIKTIDKLIVTHGDADHIGAAQELLSYIPVKEVVFGRKGKDAVLEKVVKKQALEKEMKITEVGEGASWSVNEAEFFVLAPKGKEKSENNASIVIWAKFGGLKWLFTGDLEEEGEKILVEAYPDLQVDVLKVAHHGSNTSSIEPFLNVMQPRVAIISVGKQNRYGHPHKEVIERFEKMGSAIWRTDKQGAISYVFKGENGTFKSKITYDKTHNR”, the protein production entry is given as “failed”. “MIILKGNKIDYLFLLFGLLGLSTMIYSYLSFSLDVISRNSCTINSVISCSSVENSIYSTFLGIKLYYYGMAYFSAIIVLSLLVVKGTVKNIIGYVISLLSIIASIISVYLIYTEIFLLGHMCIVCTLAHVSIFSVLILSVIKFKV”: the protein production result is recorded as “failed”. With “MNLDRRGLILLVILTLAWGINWPIMKLGVAHFPAMAFRLLCMAGGLVALGLALTFRGDSLRVPRAAWGTVLKLAIPNMVIWHLFAICAVKMLSSGRAAILGYTMPIWAVVWGLVIFRDRIALSAWIGIGCALAGTVLLLSGEIAALTGSPAGTLLMLVAAAGWGFGTQLMKRTHTDVPIGAMTFWMLAITLPFLGAGTLLFESGWRMPTAIEWGAIAYNAVVVFAYCHLVWFALARSLPPVVSSLSIMFIPVVGVFSGMWFLGETPHWQDYVAIVLMFAALSSVMLAPLLRRRM” the entry was “failed”. Turning to “MDQESNATSQDILKQHAAHYESDMGGLPEALVQLAEYAPETFDAYSRMRTTMLKSEADGAKLPLKYKHLILVVLDAIRDEPIGIVNHTRAAMNAGLSVDELIEGILLGIIVYGMPAWGKTGRKAVTFAVEFEKELAGKRT”, the protein production entry was “not failed”. Take “MDFDTIQIDYEKEETVMIGRAADKIFTRVFIFLIMTVYFWIYTVAGLVVLGIGPAFRTVTEMHMDKQWDYRLYHFKEGWQRFKRHFWQMNLHTWLFLGVGAVLAYNLYLSLSIHTLWIIFIQFIIVFALILDFSLAIFTVMLRSRYDVAFKDAIKLAIVQFFSNFTQLLTFIIGTIVLIVISLKWPGMILFLSPGIYMVGADRLSRRWYDKIDKMLGAV”: the protein production result was “failed”. On to “MYENKIVPLQMDRRKYLQSCVENMSITFVLFGTINIFFNLLINLINIGRINYEHFFKLFSITSGLWIVIILVQITSYLFSSGFFENLATIFLHDNERNKGDIWNIKSIGMFLINIITLGWLSIFSFYGIFSYIINSFDLINNFMLSTTILNFSVNLLFVLNQFLYFLFKVHEIRNIEFHNCLIHFLPGFSRMLESIVLTVKSKIMDNLSKNKNFVKAKNKKRFIDHNSYPYGDQ”, for which the protein production result was “failed”. On to “MKHKHGWASVVCCFVLFIVVCLSLTMHVQGAFRAAGHPEIGLLFFTLPGAVASFCSHRREVIRPLIGAMLAAPFCLVLMRVVFMPTRSFWQELAWLFSAVFWCALGALCYLFISSLFSHRRKKRR”, for which the protein production entry is “failed”. For “IQPTYTSTTRIYVVNQATDNNNLSAQDLQAGTYLANDYKEIITSNDVLSEVIKDEKLNLSEAELSKMVSVNIPTDTRLISISVNAKTGQDAQTLANKVREVASKKIKKVTKVEDVTTLEEAKLPESPSSPNIK”, the protein production result is listed as “failed”. Turning to “MEVNNETMQKSKFGRICVFCGSSQGKKSSYQDAAVDLGNELVLRNIDLVYGGGSIGLMGLVSQAVHDGGRHVIGVIPKTLMPRELTGETVGEVRAVADMHQRKAEMARHSDAFIALPGGYGTLEELLEVITWAQLGIHDKPVGLLNVDGYYNSLLSFIDKAVEEGFISTNARQIIISAPTAKELVKKLEEYSPCHESVATKLCWEIERIDYSSED”, the protein production entry was “failed”. The result for “MSLRKEPYLLVFGASVVDVFGFSKASYRPYNSTPGHVKISFGGVCRNIAENMARVGVNTNFMSILGNDEHGKSIVEHSKKIGYHMDDSMVIEGGSTPTYLAILDENGEMVSAIADMKSIGAMNTDFIDSKREIFENAEYTVLDSDNPEIMEYLLKNFKDKTNFILDPVSAEKASWVKHLIKDFHTIKPNRHEAEILAGFPITDTDDLIKASNYFLGLGIKKVFISLDADGIFYNDGVSCGKIKATEVDVKNVTGAGDSFVAGLGYGYMNKMPIEDIVKFAMTMSNITISHEETIHPDMALDTVLAKLEKTTWEEEKYDLNEGHHHHHH” reads “not failed”; that for “ASRDLLKEFPQPKNLLNSVIGRALGISHAKDKLVYVHTNGPKKKKVTLHIKWPKSVEVEGYGSKKIDAERQAAAAACQLFKGWGLLGPRNELFDAAKYRVLADRFG”, “not failed”; that for “MQKVTLGLLVFLAGFPVLDANDLEDKNSPFYYDWHSLQVGGLICAGVLCAMGIIIVMSAKCKCKFGQKSGHHPGETPPLITPGSAQS”, “failed”. With “MKKLFTNTIFIQSNLERLSTILKSPQNLSKWVPDINSVSPKDDYFLISRSSSALNNFEKISVTSQDNSIIYTSTGGRLEYELHFDLTNKDDRTLVEQTLLVDETLTKLPLTLLAPIAKHAFHENLSSLERLIAISLEHHHHHH”, the protein production result is given as “failed”. In the case of “MRSISTGRMIDDSSDSVKGSVVWVPAKSIWITTMTVVAVVGGPLTFSWSAVIVFVLSTAITICLGHSVGMHRLLIHRSFSAPLWLEHLLVYLGTLVGMAGPFGMIYAHDIRDWAQRQRDCHDLYAHRRSFFVDALWQMHCAVALDEPPRFVVEERARHDRFYRLLEATWMAQQIPLALLLFSLGGLPWLVWGIAVRISVSLTGHWLVGHFAHRNGHQGWSVDDVAVQGYNLPRFGLVTFGESFHGNHHAFPESARLGIEPGQLDLGWHFIRLLAGLGLASAIKLPHTIVPRDGLRRVEVSGDTGEDHPVGQR”, the protein production entry was “failed”. Regarding “VDWTDAERSAIVGLWGKISVDEIGPQALARLLIVSPWTQRHFSTFGNLSTPAAIMGNPAVAKHGKTVMHGLDRAVQNLDDIKNTYATLSVMHSEKLHVDPDNFRLLADCITVCVAAKLGPAVFSADTQEAFQKFLAVVVSALGRQYH”, the protein production entry is “not failed”.

“MEDLERRQRSQVKTHEVQAHGRISRLIPAEDFGIIETPEGREIYFHRHSVVNSDFDRLTVGTAVRFAEEMGEEGPQASSVRVEGKHHLIGLEHHHHHH”: the protein production result is reported as “not failed”. Turning to “MWKRTITVPAPYDFAHVLDRLSLDPLMAVDVERQRITVPLHLDGLKIPVVIESIGTKEAPRFVVLAPHSNRQEDILERVSHLFQWQTPLAPVYDHFRTTELAPLFARYEGLPLVLDFDLYFCLMKCFIHQQLHLKVGYRLTERFVKTFGEERDGVWFYPRPEDIAARSYDDLRALQLSRRKAEYIVDVSRLIADGTLRLDDLEQMEDGEVMERLTAIRGIGPWTVQNFLLFGLGRPNVFPPADIGLQRAVERLFQLPKRPTASELALLGERWKPYTSYAALYLWRSIE”, the protein production result was “failed”. As for “AEEKKEDEFKTIKIEKLDGGITKLVLNRPDRLNTISPEVLDEIDRAITQLWNDKDTRVIVITGAGDRAFSAGADLGGSIITHPFDFLEHNRKGERVFTRLREIPKPVIAAINGYALGGGLEIAMNCDIRLAKKSAVLGLPEVGLGILPGWSGTQRLVKLVGISRAMQLALTGERITAEEAERWGLVNKVFDDDKFEEEVMNYAKNIAERCAPISMALIKRLINKGGEVPMDIGLEWECTAAGLLFATEDMREGISAFLRKDKPQFKGR”, the protein production result is listed as “failed”.
